The values that follow come from publication PMC7311561.

Assay [1] deals with cathepsin B from human (human).
Assay [2] deals with cathepsin L from human (human).
For assay [3], the target named is papain from Carica papaya (Carica papaya) (UniProt P00784).
Sequence of papain from Carica papaya (Carica papaya) (P00784 134-345): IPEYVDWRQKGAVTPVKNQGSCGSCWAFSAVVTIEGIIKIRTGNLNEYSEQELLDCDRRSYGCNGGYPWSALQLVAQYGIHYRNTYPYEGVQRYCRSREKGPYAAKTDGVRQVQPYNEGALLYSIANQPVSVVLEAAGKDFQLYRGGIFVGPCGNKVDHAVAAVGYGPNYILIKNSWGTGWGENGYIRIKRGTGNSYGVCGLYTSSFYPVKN

“TK-cystatin (secretory cystatin from Thelohanellus kitauei) (natural protein)” showed an IC50 of inhibition of cathepsin B activity (0.026 μmol/L cathepsin B, fluorogenic substrate Z-Arg-Arg-AMC, pH 5.5, increasing TK-cystatin) in assay [1] of 2.1 μmol/L. For the same substance, in assay [2], the IC50 of inhibition of cathepsin L activity (0.026 μmol/L cathepsin L, fluorogenic substrate Z-Phe-Arg-AMC, pH 5.5, increasing TK-cystatin) is 0.175 μmol/L. In addition, in assay [3], the IC50 of inhibition of papain activity (0.15 μmol/L papain, fluorogenic substrate Z-Phe-Arg-AMC, pH 5.5, increasing TK-cystatin) came out at 0.8 μmol/L.
